These binders were tested against Human IgG (Calbiochem; San Diego Calif.) (human) (assay: IgG displaced from peptide pin; competitor MSP1-19).
QCVKK [Peptide# 6] gave a ΔF (%) of under 5%.
CKCLL [Peptide# 28] showed a ΔF (%) of under 5%.
Binder NGGCD [Peptide# 53] has a ΔF (%) of 10%.
VENPN [Peptide# 42] was tested, and the ΔF (%) was under 5%.
EGDKC [Peptide# 37] showed a ΔF (%) of under 5%.
In the case of DADAK [Peptide# 57], the ΔF (%) is reported as under 5%.
QNSGC [Peptide# 14] showed a ΔF (%) of under 5%.
SQHQC [Peptide# 3] was tested, and the ΔF (%) was under 5%.
REECK [Peptide# 25] showed a ΔF (%) of under 5%.
With PNPTC [Peptide# 45] the ΔF (%) was under 5%.
CLLNY [Peptide# 30] showed a ΔF (%) of under 5%.
Work on QEGDK [Peptide# 36] yielded a ΔF (%) of under 5%.
DKCVE [Peptide# 39] showed a ΔF (%) of under 5%.
For DEREE [Peptide# 23], the ΔF (%) was under 5%.
With GDKCV [Peptide# 38] the ΔF (%) was under 5%.
ENPNP [Peptide# 43] showed a ΔF (%) of under 5%.
For KCLLN [Peptide# 29], the ΔF (%) was under 5%.
FRHLD [Peptide# 19] showed a ΔF (%) of under 5%.
Binder SGCFR [Peptide# 16] has a ΔF (%) of under 5%.
With ADAKC [Peptide# 58] the ΔF (%) was under 5%.
Work on EREEC [Peptide# 24] yielded a ΔF (%) of under 5%.
Work on CTEED [Peptide# 62] yielded a ΔF (%) of under 5%.
With QHQCV [Peptide# 4] the ΔF (%) was under 5%.
For HLDER [Peptide# 21], the ΔF (%) was under 5%.
YKQEG [Peptide# 34] showed a ΔF (%) of under 5%.
GCDAD [Peptide# 55] was tested, and the ΔF (%) was 7%.
Binder NSGCF [Peptide# 15] has a ΔF (%) of under 5%.
NNGGC [Peptide# 52] was tested, and the ΔF (%) was 6%.
ISQHQ [Peptide# 2] showed a ΔF (%) of under 5%.
With HQCVK [Peptide# 5] the ΔF (%) was under 5%.
KCVEN [Peptide# 40] was tested, and the ΔF (%) was under 5%.
CPQNS [Peptide# 12] gave a ΔF (%) of under 5%.
In the case of CVENP [Peptide# 41], the ΔF (%) is reported as under 5%.
ENNGG [Peptide# 51] was tested, and the ΔF (%) was under 5%.
With KQCPQ [Peptide# 10] the ΔF (%) was under 5%.
With ECKCL [Peptide# 27] the ΔF (%) was under 5%.
LNYKQ [Peptide# 32] was tested, and the ΔF (%) was under 5%.
Work on GCFRH [Peptide# 17] yielded a ΔF (%) of under 5%.
Work on LLNYK [Peptide# 31] yielded a ΔF (%) of under 5%.
RHLDE [Peptide# 20] gave a ΔF (%) of under 5%.
Binder PTCNE [Peptide# 47] has a ΔF (%) of under 5%.
Binder LDERE [Peptide# 22] has a ΔF (%) of under 5%.
In the case of NPNPT [Peptide# 44], the ΔF (%) is reported as under 5%.
For TCNEN [Peptide# 48], the ΔF (%) was under 5%.
In the case of NYKQE [Peptide# 33], the ΔF (%) is reported as under 5%.
For QCPQN [Peptide# 11], the ΔF (%) was under 5%.
Work on KQEGD [Peptide# 35] yielded a ΔF (%) of under 5%.
Binder EECKC [Peptide# 26] has a ΔF (%) of under 5%.
KCTEE [Peptide# 61] gave a ΔF (%) of 6%.
CFRHL [Peptide# 18] gave a ΔF (%) of under 5%.
For TEEDS [Peptide# 63], the ΔF (%) was under 5%.
NISQH [Peptide# 1] was tested, and the ΔF (%) was under 5%.
With NENNG [Peptide# 50] the ΔF (%) was 5%.
With CDADA [Peptide# 56] the ΔF (%) was under 5%.
In the case of CNENN [Peptide# 49], the ΔF (%) is reported as 16%.
In the case of AKCTE [Peptide# 60], the ΔF (%) is reported as 5%.
With GGCDA [Peptide# 54] the ΔF (%) was under 5%.
Binder DAKCT [Peptide# 59] has a ΔF (%) of under 5%.
NPTCN [Peptide# 46] showed a ΔF (%) of under 5%.
With PQNSG [Peptide# 13] the ΔF (%) was under 5%.
